Measured values from US20250282887A1 (Amgen, published 2025).
Substitutions are numbered along the chain they refer to.

B1: 1C3 (antibody, V domains shown)
VH: QSLEESGGGLVQPEGSLTLTCTAFGVTLTNYYICWVRQAPGKGLEWVGCIDNANGRTYYASWAKGRFTISKTSSTTGTLQMTSLTAADTATYFCARSLATPLWGPGTLVTVSS
VL: DIVMTQTPSSVEAAVGGTVTIKCQASQNISSYLAWYQQKPGQPPKLLIYRASTLASGVPSRFKGSGSGTQFTLTISDLECADAATYYCQSYDDSRSSNFFYAFGGGTEVVVKG
notes: also called MAGE-B2 (IC3); anti-MAGEB2 antibody 1C3
B2: 4G17 (antibody, IgG1, V domains shown)
VH: B1 VH with F24S, T29S, V47I, A53V
VL: DIVMTQTPASVEAAVGGTVTIKCQASQNIDSYLAWYQQKPGQPPKLLIYRASTLASGVPSRFKGSGSGTEFTLTISDLECADAATYYCQSYDDSRSSSFFYGFGGGTEVVVK
notes: Rabbit monoclonal IgG1; Tested as supernatant and as small batch purified antibody; also called MAGE-B2 (4G17); anti-MAGEB2 antibody 4G17
B3: 1J15 (antibody, IgG1, V domains shown)
VH: B1 VH with V26F, T29N, V47I, G48A, G77V, A99S
VL: B2 VL with N28S, D30S, A34S, K63R, E70Q, R95S, S96D, S97N, S98N, K112R
notes: Rabbit monoclonal IgG1; Tested as supernatant and as small batch purified antibody; also called MAGE-B2 (IJ15); anti-MAGEB2 antibody 1J15
B4: 1I14 (antibody, V domains shown)
VH: QSVEESGGRLVTPGTPLTLTCTISGFSLSSYAMSWVRQAPGKGLEWIGSIGGGGSAVYASWAKGRFTISKTSTTVDLRITSPTTEDTAMYFCGRGFYSIDLWGPGTLVTVSS
VL: DVVMTQTPASVEATVGGTVTIKCQSSQSVYDNNALAWYQQNAGQRPRLLIYGASTLASGVPSRFSASGSGTEFTLTISDLECADAATYYCQCTYYVSSYQNDFGGGTEVVVKG
notes: also called MAGE-B2 (1i14)

Target: T1, Human MAGEB2 (Melanoma-associated antigen B2) (human, UniProt O15479 1-319)
T1 construct: Intracellular antigen detected by IHC in FFPE material: CHO cells transfected with human MAGEB2 (mCherry vector with Myc/DDK tags, or ORF without tags)
T1 sequence: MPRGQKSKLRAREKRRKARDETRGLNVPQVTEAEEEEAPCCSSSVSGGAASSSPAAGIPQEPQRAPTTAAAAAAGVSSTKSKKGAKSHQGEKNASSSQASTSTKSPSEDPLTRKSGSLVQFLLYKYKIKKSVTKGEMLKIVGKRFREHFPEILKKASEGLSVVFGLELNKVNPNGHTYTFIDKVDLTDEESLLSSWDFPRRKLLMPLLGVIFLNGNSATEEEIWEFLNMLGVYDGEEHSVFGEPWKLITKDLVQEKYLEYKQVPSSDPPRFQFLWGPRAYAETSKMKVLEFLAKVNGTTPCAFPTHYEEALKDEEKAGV
Test: IHC on FFPE NCI-H82 cells (endogenous MAGEB2)
Description: (§1) FFPE samples were sectioned at 4 μm and mounted on positive charged glass slides. After mounting, paraffin sections were air-dried at room temperature. FFPE TMA samples were received as freshly sectioned and mounted on glass slides. The fully automated IHC assay was performed on a Discovery Ultra Stainer (Ventana Medical Systems, Tucson, AZ) using Ventana Anti-Rabbit HQ (cat #760-4815), Ventana Anti-HQ HRP (cat #760-4820), and Ventana Antibody Diluent with Casein (cat #760-219) (Ventana Medical Systems, Tucson, AZ). The slides were baked on the Discovery Ultra Stainer at 60° C. for 8 minutes, de-paraffinized with Ventana Discovery wash (cat #950-510) for 3 cycles (8 minutes each) at 69° C., and underwent cell conditioning (target retrieval) at 95° C. for 16 minutes (for cell arrays) or 32 minutes (tissues or TMAs) in CC1 buffer (cat #950-500). Following this, slides were incubated with Background Sniper (cat #BS966M, Biocare Medical, Pacheco, CA) in a Ventana Option Prep kit (cat #771-751) for 28 minutes, incubated with CM inhibitor (a part of the Ventana DAB kit cat #760-159) for 12 minutes, and incubated for 1 h at RT with MAGE-B2 antibody diluted with Ventana diluent with Casein in a Ventana Prep kit (cat #770-001) (working concentration at 0.1 μg/ml for cell pellet, or 1-5 ug/ml for tissues) or with a matched concentration of isotype control Rabbit IgG1 antibody. Following this, slides were incubated with the Ventana Anti-Rabbit HQ (cat #760-4815) for 28 minutes at RT, Ventana Anti-HQ HRP (cat #760-4820) for 28 minutes at RT, and signals detected with Ventana DAB chromogen kit (cat #760-159) for 5 minutes at RT. Slides were counterstained with Ventana Hematoxylin II (cat #5266726001) for 8 minutes and Ventana Bluing reagent (cat #526676900) for 4 minutes. Slides were coverslipped and digitized using an Aperio AT2 scanner (Leica Biosystems Inc, Buffalo Grove, IL).

| Binder | IHC % Frequency | IHC Intensity |
| --- | --- | --- |
| B1 | 0% | 1 |
| B2 | 0% | 0 |
| B3 | 0% | 0 |
| B4 | 0% | 0 |

Target: T2, human MAGEB16 (human, UniProt A2A368 1-324)
T2 construct: whole, on cells; FFPE cell pellets
T2 sequence (looked up): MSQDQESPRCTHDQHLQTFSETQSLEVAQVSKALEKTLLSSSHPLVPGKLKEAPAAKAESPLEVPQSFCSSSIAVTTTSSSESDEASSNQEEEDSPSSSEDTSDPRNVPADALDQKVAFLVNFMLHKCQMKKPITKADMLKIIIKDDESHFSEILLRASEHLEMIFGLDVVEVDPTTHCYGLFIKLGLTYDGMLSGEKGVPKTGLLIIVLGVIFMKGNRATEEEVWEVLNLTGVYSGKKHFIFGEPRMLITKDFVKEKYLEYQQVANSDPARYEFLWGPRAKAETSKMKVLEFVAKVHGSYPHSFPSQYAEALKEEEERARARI
Test: IHC, FFPE CHO cells transfected with human MAGEB16
Excerpt: Negative control cells included parental Chinese hamster ovary (CHO) cells, CHO cells stably transfected with mCherry Vector Control (minus Myc/DDK tags), CHO cells stably transfected with mCherry-human DCAF4L2 (plus Myc/DDK tags). The cross-reactivity control cells included CHO cells transfected with mCherry Vector Control (plus Myc/DDK tags) with one of the human MAGE-B or MAGE-A family members (MAGEA1, MAGEA2, MAGEA3, MAGEA4, MAGEA5, MAGEA6, MAGEA8, MAGEA9, MAGEA11, MAGEA12, MAGEB1, MAGEB3, MAGEB4, MAGEB5, MAGEB6, MAGEB10, MAGEB16, MAGEB17, MAGEB18). Positive control cell lines included CHO cells transfected with mCherry Vector (plus Myc/DDK tags) with human MAGE-B2 or CHO cells transfected with mCherry Vector (open reading frame (ORF); minus Myc/DDK tags) with human MAGEB2, and thirteen human cancer cell lines with known endogenous RNA expression level of MAGEB2 (U266B1, T98G, KMM-1, U20S, CFPAC-1, SCaBER, UACC-257, CFPAC-1, VMRC-LCD, NCI-H1703, UM-UC-3, NCI-H1395, NCIH82).
as §1, with “antibody.” for “antibody. Following this, slides were incubated with the Ventana Anti-Rabbit HQ (cat #760-4815) for 28 minutes at RT, Ventana Anti-HQ HRP (cat #760-4820) for 28 minutes at RT, and signals detected with Ventana DAB chromogen kit (cat #760-159) for 5 minutes at RT. Slides were counterstained with Ventana Hematoxylin II (cat #5266726001) for 8 minutes and Ventana Bluing reagent (cat #526676900) for 4 minutes. Slides were coverslipped and digitized using an Aperio AT2 scanner (Leica Biosystems Inc, Buffalo Grove, IL).”

| Binder | binding result |
| --- | --- |
| B1 | no binding (tested: 0.1 µg/ml) |
| B2 | no binding (tested: 0.1 µg/ml) |
| B3 | no binding (tested: 0.1 µg/ml) |
| B4 | no binding (tested: 0.1 µg/ml) |
